Laboratory results from patent US20110166062A1 (INDIANA UNIVERSITY RESEARCH AND TECHNOLOGY, published 2011).
Bridges are numbered along the chain shown (N, C = ends). Where no end group is shown, it is not given here. [ ]: non-standard residue; d: D form. Aib = CC(C)(N)C(=O)O

T1: GIP receptor (UniProt P48546 22-466)
T1 sequence (looked up): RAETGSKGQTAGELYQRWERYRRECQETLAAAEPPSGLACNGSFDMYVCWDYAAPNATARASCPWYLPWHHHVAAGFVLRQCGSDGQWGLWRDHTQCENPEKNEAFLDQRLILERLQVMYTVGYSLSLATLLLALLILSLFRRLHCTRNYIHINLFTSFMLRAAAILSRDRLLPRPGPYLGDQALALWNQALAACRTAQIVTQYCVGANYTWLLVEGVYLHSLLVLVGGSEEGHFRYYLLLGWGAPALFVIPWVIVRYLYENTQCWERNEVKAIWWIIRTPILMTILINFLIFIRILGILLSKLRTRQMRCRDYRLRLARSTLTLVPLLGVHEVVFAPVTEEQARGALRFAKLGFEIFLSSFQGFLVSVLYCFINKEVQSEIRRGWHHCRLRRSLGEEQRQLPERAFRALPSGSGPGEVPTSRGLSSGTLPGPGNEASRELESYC

B1: mt-156 (peptide)
peptide: YSQGTFTSDYSIYLDEQAAKEFVEWLLAGGPSSGAPPPS-NH2
modifications: lactam 20-24; N-terminus assumed
SMILES: CC[C@H](C)[C@H](NC(=O)[C@H](CO)NC(=O)[C@H](Cc1ccc(O)cc1)NC(=O)[C@H](CC(=O)O)NC(=O)[C@H](CO)NC(=O)[C@@H](NC(=O)[C@H](Cc1ccccc1)NC(=O)[C@@H](NC(=O)CNC(=O)[C@H](CCC(N)=O)NC(=O)[C@H](CO)NC(=O)[C@@H](N)Cc1ccc(O)cc1)[C@@H](C)O)[C@@H](C)O)C(=O)N[C@@H](Cc1ccc(O)cc1)C(=O)N[C@@H](CC(C)C)C(=O)N[C@@H](CC(=O)O)C(=O)N[C@@H](CCC(=O)O)C(=O)N[C@@H](CCC(N)=O)C(=O)N[C@@H](C)C(=O)N[C@@H](C)C(=O)N[C@H]1CCCCNC(=O)CC[C@@H](C(=O)N[C@@H](Cc2c[nH]c3ccccc23)C(=O)N[C@@H](CC(C)C)C(=O)N[C@@H](CC(C)C)C(=O)N[C@@H](C)C(=O)NCC(=O)NCC(=O)N2CCC[C@H]2C(=O)N[C@@H](CO)C(=O)N[C@@H](CO)C(=O)NCC(=O)N[C@@H](C)C(=O)N2CCC[C@H]2C(=O)N2CCC[C@H]2C(=O)N2CCC[C@H]2C(=O)N[C@@H](CO)C(N)=O)NC(=O)[C@H](C(C)C)NC(=O)[C@H](Cc2ccccc2)NC(=O)[C@H](CCC(=O)O)NC1=O
B2: mt-152 (peptide)
peptide: Y[Aib]QGTFTSDYSIYLDEQAAKEFVNWLLAGGPSSGAPPPS-NH2
modifications: lactam 16-20; N-terminus assumed
SMILES: CC[C@H](C)[C@H](NC(=O)[C@H](CO)NC(=O)[C@H](Cc1ccc(O)cc1)NC(=O)[C@H](CC(=O)O)NC(=O)[C@H](CO)NC(=O)[C@@H](NC(=O)[C@H](Cc1ccccc1)NC(=O)[C@@H](NC(=O)CNC(=O)[C@H](CCC(N)=O)NC(=O)C(C)(C)NC(=O)[C@@H](N)Cc1ccc(O)cc1)[C@@H](C)O)[C@@H](C)O)C(=O)N[C@@H](Cc1ccc(O)cc1)C(=O)N[C@@H](CC(C)C)C(=O)N[C@@H](CC(=O)O)C(=O)N[C@H]1CCC(=O)NCCCC[C@@H](C(=O)N[C@@H](CCC(=O)O)C(=O)N[C@@H](Cc2ccccc2)C(=O)N[C@H](C(=O)N[C@@H](CC(N)=O)C(=O)N[C@@H](Cc2c[nH]c3ccccc23)C(=O)N[C@@H](CC(C)C)C(=O)N[C@@H](CC(C)C)C(=O)N[C@@H](C)C(=O)NCC(=O)NCC(=O)N2CCC[C@H]2C(=O)N[C@@H](CO)C(=O)N[C@@H](CO)C(=O)NCC(=O)N[C@@H](C)C(=O)N2CCC[C@H]2C(=O)N2CCC[C@H]2C(=O)N2CCC[C@H]2C(=O)N[C@@H](CO)C(N)=O)C(C)C)NC(=O)[C@H](C)NC(=O)[C@H](C)NC(=O)[C@H](CCC(N)=O)NC1=O
B3: mt-147 (peptide)
peptide: YSQGTFTSDYSIYLDEQAAKEFIAWLLAGGPSSGAPPPS-NH2
modifications: lactam 16-20; N-terminus assumed
SMILES: CC[C@H](C)[C@H](NC(=O)[C@H](Cc1ccccc1)NC(=O)[C@H](CCC(=O)O)NC(=O)[C@@H]1CCCCNC(=O)CC[C@H](NC(=O)[C@H](CC(=O)O)NC(=O)[C@H](CC(C)C)NC(=O)[C@H](Cc2ccc(O)cc2)NC(=O)[C@@H](NC(=O)[C@H](CO)NC(=O)[C@H](Cc2ccc(O)cc2)NC(=O)[C@H](CC(=O)O)NC(=O)[C@H](CO)NC(=O)[C@@H](NC(=O)[C@H](Cc2ccccc2)NC(=O)[C@@H](NC(=O)CNC(=O)[C@H](CCC(N)=O)NC(=O)[C@H](CO)NC(=O)[C@@H](N)Cc2ccc(O)cc2)[C@@H](C)O)[C@@H](C)O)[C@@H](C)CC)C(=O)N[C@@H](CCC(N)=O)C(=O)N[C@@H](C)C(=O)N[C@@H](C)C(=O)N1)C(=O)N[C@@H](C)C(=O)N[C@@H](Cc1c[nH]c2ccccc12)C(=O)N[C@@H](CC(C)C)C(=O)N[C@@H](CC(C)C)C(=O)N[C@@H](C)C(=O)NCC(=O)NCC(=O)N1CCC[C@H]1C(=O)N[C@@H](CO)C(=O)N[C@@H](CO)C(=O)NCC(=O)N[C@@H](C)C(=O)N1CCC[C@H]1C(=O)N1CCC[C@H]1C(=O)N1CCC[C@H]1C(=O)N[C@@H](CO)C(N)=O
B4: mt-149 (peptide)
peptide: YAEGTFTSDYSIYLDEQAAKEFVNWLLAGGPSSGAPPPS-NH2
modifications: lactam 16-20; N-terminus assumed
SMILES: CC[C@H](C)[C@H](NC(=O)[C@H](CO)NC(=O)[C@H](Cc1ccc(O)cc1)NC(=O)[C@H](CC(=O)O)NC(=O)[C@H](CO)NC(=O)[C@@H](NC(=O)[C@H](Cc1ccccc1)NC(=O)[C@@H](NC(=O)CNC(=O)[C@H](CCC(=O)O)NC(=O)[C@H](C)NC(=O)[C@@H](N)Cc1ccc(O)cc1)[C@@H](C)O)[C@@H](C)O)C(=O)N[C@@H](Cc1ccc(O)cc1)C(=O)N[C@@H](CC(C)C)C(=O)N[C@@H](CC(=O)O)C(=O)N[C@H]1CCC(=O)NCCCC[C@@H](C(=O)N[C@@H](CCC(=O)O)C(=O)N[C@@H](Cc2ccccc2)C(=O)N[C@H](C(=O)N[C@@H](CC(N)=O)C(=O)N[C@@H](Cc2c[nH]c3ccccc23)C(=O)N[C@@H](CC(C)C)C(=O)N[C@@H](CC(C)C)C(=O)N[C@@H](C)C(=O)NCC(=O)NCC(=O)N2CCC[C@H]2C(=O)N[C@@H](CO)C(=O)N[C@@H](CO)C(=O)NCC(=O)N[C@@H](C)C(=O)N2CCC[C@H]2C(=O)N2CCC[C@H]2C(=O)N2CCC[C@H]2C(=O)N[C@@H](CO)C(N)=O)C(C)C)NC(=O)[C@H](C)NC(=O)[C@H](C)NC(=O)[C@H](CCC(N)=O)NC1=O
B5: mt-148 (peptide)
peptide: YSEGTFTSDYSIYLDEQAAKEFIAWLLAGGPSSGAPPPS-NH2
modifications: lactam 16-20; N-terminus assumed
SMILES: CC[C@H](C)[C@H](NC(=O)[C@H](Cc1ccccc1)NC(=O)[C@H](CCC(=O)O)NC(=O)[C@@H]1CCCCNC(=O)CC[C@H](NC(=O)[C@H](CC(=O)O)NC(=O)[C@H](CC(C)C)NC(=O)[C@H](Cc2ccc(O)cc2)NC(=O)[C@@H](NC(=O)[C@H](CO)NC(=O)[C@H](Cc2ccc(O)cc2)NC(=O)[C@H](CC(=O)O)NC(=O)[C@H](CO)NC(=O)[C@@H](NC(=O)[C@H](Cc2ccccc2)NC(=O)[C@@H](NC(=O)CNC(=O)[C@H](CCC(=O)O)NC(=O)[C@H](CO)NC(=O)[C@@H](N)Cc2ccc(O)cc2)[C@@H](C)O)[C@@H](C)O)[C@@H](C)CC)C(=O)N[C@@H](CCC(N)=O)C(=O)N[C@@H](C)C(=O)N[C@@H](C)C(=O)N1)C(=O)N[C@@H](C)C(=O)N[C@@H](Cc1c[nH]c2ccccc12)C(=O)N[C@@H](CC(C)C)C(=O)N[C@@H](CC(C)C)C(=O)N[C@@H](C)C(=O)NCC(=O)NCC(=O)N1CCC[C@H]1C(=O)N[C@@H](CO)C(=O)N[C@@H](CO)C(=O)NCC(=O)N[C@@H](C)C(=O)N1CCC[C@H]1C(=O)N1CCC[C@H]1C(=O)N1CCC[C@H]1C(=O)N[C@@H](CO)C(N)=O
B6: mt-150 (peptide)
peptide: YSQGTFISDYSIYLDEQAAKEFVNWLLAGGPSSGAPPPS-NH2
modifications: lactam 16-20; N-terminus assumed
SMILES: CC[C@H](C)[C@H](NC(=O)[C@H](CO)NC(=O)[C@H](Cc1ccc(O)cc1)NC(=O)[C@H](CC(=O)O)NC(=O)[C@H](CO)NC(=O)[C@@H](NC(=O)[C@H](Cc1ccccc1)NC(=O)[C@@H](NC(=O)CNC(=O)[C@H](CCC(N)=O)NC(=O)[C@H](CO)NC(=O)[C@@H](N)Cc1ccc(O)cc1)[C@@H](C)O)[C@@H](C)CC)C(=O)N[C@@H](Cc1ccc(O)cc1)C(=O)N[C@@H](CC(C)C)C(=O)N[C@@H](CC(=O)O)C(=O)N[C@H]1CCC(=O)NCCCC[C@@H](C(=O)N[C@@H](CCC(=O)O)C(=O)N[C@@H](Cc2ccccc2)C(=O)N[C@H](C(=O)N[C@@H](CC(N)=O)C(=O)N[C@@H](Cc2c[nH]c3ccccc23)C(=O)N[C@@H](CC(C)C)C(=O)N[C@@H](CC(C)C)C(=O)N[C@@H](C)C(=O)NCC(=O)NCC(=O)N2CCC[C@H]2C(=O)N[C@@H](CO)C(=O)N[C@@H](CO)C(=O)NCC(=O)N[C@@H](C)C(=O)N2CCC[C@H]2C(=O)N2CCC[C@H]2C(=O)N2CCC[C@H]2C(=O)N[C@@H](CO)C(N)=O)C(C)C)NC(=O)[C@H](C)NC(=O)[C@H](C)NC(=O)[C@H](CCC(N)=O)NC1=O

Each binder was assayed against glucagon receptor (UniProt P47871 26-477, limits assumed) (assay: cell-based or functional assay).
Sequence of glucagon receptor (P47871 26-477 limits assumed): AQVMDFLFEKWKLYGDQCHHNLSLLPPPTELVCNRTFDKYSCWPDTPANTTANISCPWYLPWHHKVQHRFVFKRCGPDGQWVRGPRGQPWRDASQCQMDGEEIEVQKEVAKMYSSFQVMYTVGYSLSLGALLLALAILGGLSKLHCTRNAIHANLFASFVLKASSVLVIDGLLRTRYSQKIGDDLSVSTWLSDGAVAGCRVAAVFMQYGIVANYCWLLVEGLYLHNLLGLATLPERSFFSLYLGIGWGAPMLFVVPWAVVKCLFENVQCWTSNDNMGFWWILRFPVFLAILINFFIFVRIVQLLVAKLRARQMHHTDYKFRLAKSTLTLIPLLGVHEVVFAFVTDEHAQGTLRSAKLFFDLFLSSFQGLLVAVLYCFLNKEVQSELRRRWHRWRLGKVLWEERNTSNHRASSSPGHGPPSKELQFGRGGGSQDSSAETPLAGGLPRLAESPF

In order of falling “EC50” value:
1. B4  16.3 nM
2. B5  4.91 nM
3. B1  2.96 nM
4. B2  0.293 nM
5. B3  0.116 nM
6. B6  0.036 nM

In order of rising relative activity:
1. B4  0.64%
2. B5  2.14%
3. B1  6.1%
4. B2  36.5%
5. B3  90.5%
6. B6  317%

These binders were tested against GLP-1 receptor (UniProt P43220 24-463, limits assumed) (assay: cell-based or functional assay).

In order of falling “EC50” value:
1. B6  3.47 nM
2. B1  0.246 nM
3. B3  0.105 nM
4. B5  0.098 nM
5. B4  0.036 nM
6. B2  0.016 nM

In order of rising relative activity:
1. B6  1.09%
2. B1  12.2%
3. B3  33.9%
4. B5  36.2%
5. B4  97.5%
6. B2  169%

What follows are binders tested against T1, GIP receptor (assay: cell-based or functional assay).

In order of rising “EC50” value:
1. B4  0.068 nM
2. B2  0.087 nM
3. B5  0.095 nM
4. B3  0.144 nM
5. B6  0.232 nM
6. B1  0.919 nM

In order of falling relative activity:
1. B4  91.2%
2. B5  65.3%
3. B3  43.1%
4. B2  41.2%
5. B6  26.7%
6. B1  4.41%
